Holding throughout (experiment): ITC; ITC: 10 mM HEPES pH 8.0, 50 mM KCl, 1 mM EDTA, 1 mM BME, 25 C (protein into RNA); EMSA: 10 mM HEPES pH 8.0, 50 mM KCl, 1 mM EDTA, 5 mM BME, room temperature 30
One series deals with hnRNP A2/B1 RRM1-RRM2 (human, UniProt P22626 12-195). The note with it: protein: recombinant; tags: N-terminal His6-SUMO removed by Ulp1; single strand.
Series [1] concerns the target hnRNP A2/B1 RRMs + RGG box (human, UniProt P22626 1-249). The settings on record: protein: recombinant; tags: N-terminal His6-SUMO removed by Ulp1; single strand.
For series [2], the target named is hnRNP A2/B1 (12-195) E183A (human, UniProt P22626 12-195, E183A). The settings on record: protein: recombinant; tags: His6-SUMO removed; single strand.
hnRNP A2/B1 (12-195) E183A, sequence (P22626 12-195 E183A): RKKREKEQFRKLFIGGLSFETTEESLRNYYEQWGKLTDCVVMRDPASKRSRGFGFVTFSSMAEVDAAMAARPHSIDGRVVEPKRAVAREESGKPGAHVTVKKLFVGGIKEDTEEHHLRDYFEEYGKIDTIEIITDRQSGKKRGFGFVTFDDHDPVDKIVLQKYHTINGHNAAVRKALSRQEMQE
For series [3], the target named is hnRNP A2/B1 (12-195) D49A (human, UniProt P22626 12-195, D49A). The note with it: protein: recombinant; tags: His6-SUMO removed; single strand.
hnRNP A2/B1 (12-195) D49A, sequence (P22626 12-195 D49A): as the sequence (P22626 12-195 E183A) above, with D38A, A172E counted along it
In series [4] the target is hnRNP A2/B1 (12-195) K113A (human, UniProt P22626 12-195, K113A). The note with it: protein: recombinant; tags: His6-SUMO removed; single strand.
hnRNP A2/B1 (12-195) K113A, sequence (P22626 12-195 K113A): as the sequence (P22626 12-195 E183A) above, with K102A, A172E counted along it
In series [5] the target is hnRNP A2/B1 (12-195) F66A (human, UniProt P22626 12-195, F66A). The note with it: protein: recombinant; tags: His6-SUMO removed; single strand.
hnRNP A2/B1 (12-195) F66A, sequence (P22626 12-195 F66A): as the sequence (P22626 12-195 E183A) above, with F55A, A172E counted along it
Series [6] has as its target hnRNP A2/B1 (12-195) F157A (human, UniProt P22626 12-195, F157A). The settings on record: protein: recombinant; tags: His6-SUMO removed; single strand.
Series [7] has as its target hnRNP A2/B1 (12-195) E92A (human, UniProt P22626 12-195, E92A). The note with it: protein: recombinant; tags: His6-SUMO removed; single strand.
Series [8] addresses hnRNP A2/B1 (12-195) K120A (human, UniProt P22626 12-195, K120A). The note with it: protein: recombinant; tags: His6-SUMO removed; single strand.
The next series has as its target hnRNP A2/B1 full-length (human, UniProt P22626 1-353). The note with it: protein: recombinant; tags: prepared with His6(-SUMO) tag or untagged; single strand.
Series [9] has as its target hnRNP A2/B1 (12-195) Q19A (human, UniProt P22626 12-195, Q19A). The settings on record: protein: recombinant; tags: His6-SUMO removed; single strand.
For series [10], the target named is hnRNP A2/B1 (12-195) F24A (human, UniProt P22626 12-195, F24A). The note with it: protein: recombinant; tags: His6-SUMO removed; single strand.
hnRNP A2/B1 (12-195) F24A, sequence (P22626 12-195 F24A): as the sequence (P22626 12-195 E183A) above, with F13A, A172E counted along it
Series [11] addresses hnRNP A2/B1 (12-195) H108A (human, UniProt P22626 12-195, H108A). The settings on record: protein: recombinant; tags: His6-SUMO removed; single strand.
In series [12] the target is hnRNP A2/B1 (12-195) F115A (human, UniProt P22626 12-195, F115A). The note with it: protein: recombinant; tags: His6-SUMO removed; single strand.
hnRNP A2/B1 (12-195) F115A, sequence (P22626 12-195 F115A): as the sequence (P22626 12-195 E183A) above, with F104A, A172E counted along it

hnRNP A2/B1 RRM1-RRM2, sequence (P22626 12-195): as the sequence (P22626 12-195 E183A) above, with A172E counted along it
hnRNP A2/B1 RRMs + RGG box, sequence (P22626 1-249): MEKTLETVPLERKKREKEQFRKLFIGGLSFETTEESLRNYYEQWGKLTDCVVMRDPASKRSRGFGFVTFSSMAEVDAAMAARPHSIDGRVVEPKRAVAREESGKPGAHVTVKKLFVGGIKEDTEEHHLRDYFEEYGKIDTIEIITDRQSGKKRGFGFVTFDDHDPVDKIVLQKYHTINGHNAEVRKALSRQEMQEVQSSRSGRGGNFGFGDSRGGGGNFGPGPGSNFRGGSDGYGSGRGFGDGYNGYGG
hnRNP A2/B1 full-length, sequence (P22626 whole entry): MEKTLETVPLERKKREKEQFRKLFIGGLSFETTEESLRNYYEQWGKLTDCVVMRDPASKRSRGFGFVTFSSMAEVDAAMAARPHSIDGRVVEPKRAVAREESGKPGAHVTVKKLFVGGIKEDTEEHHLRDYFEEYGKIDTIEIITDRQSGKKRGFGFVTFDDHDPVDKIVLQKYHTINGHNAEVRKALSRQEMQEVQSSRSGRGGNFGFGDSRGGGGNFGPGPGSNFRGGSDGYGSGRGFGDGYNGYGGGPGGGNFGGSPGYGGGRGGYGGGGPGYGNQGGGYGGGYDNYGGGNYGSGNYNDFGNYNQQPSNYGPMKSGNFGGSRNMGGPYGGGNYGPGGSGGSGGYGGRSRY
hnRNP A2/B1 (12-195) Q19A, sequence (P22626 12-195 Q19A): as the sequence (P22626 12-195 E183A) above, with Q8A, A172E counted along it
hnRNP A2/B1 (12-195) F157A, sequence (P22626 12-195 F157A): as the sequence (P22626 12-195 E183A) above, with F146A, A172E counted along it
hnRNP A2/B1 (12-195) H108A, sequence (P22626 12-195 H108A): as the sequence (P22626 12-195 E183A) above, with H97A, A172E counted along it
hnRNP A2/B1 (12-195) K120A, sequence (P22626 12-195 K120A): as the sequence (P22626 12-195 E183A) above, with K109A, A172E counted along it
hnRNP A2/B1 (12-195) E92A, sequence (P22626 12-195 E92A): as the sequence (P22626 12-195 E183A) above, with E81A, A172E counted along it

B1: 8mer-m6A (ssRNA)
RNA: AGGACUGC
modifications: m6A at position 4
As for B1, the Kd with hnRNP A2/B1 RRM1-RRM2 was 461 ± 47.4 nM; in series [1], 505 ± 44.2 nM.

B2: G2C (ssRNA)
RNA: AACGACUAGC
B2: in the series with hnRNP A2/B1 RRM1-RRM2, the Kd worked out at 699 ± 88.5 nM.

B3: A7G (ssRNA)
RNA: AAGGACUGGC
As to B3, the dissociation constant Kd in the series with hnRNP A2/B1 RRM1-RRM2 is 108 ± 11.5 nM.

B4: G3C (ssRNA)
RNA: AAGCACUAGC
As to B4, the dissociation constant (Kd) with hnRNP A2/B1 RRM1-RRM2 was 952.4 ± 1.14 nM.

B5: G8U (ssRNA)
RNA: AAGGACUAUC
Consider B5, for which the equilibrium dissociation constant (Kd) with hnRNP A2/B1 RRM1-RRM2 was found to be 272 ± 30.7 nM.

B6: G8A (ssRNA)
RNA: AAGGACUAAC
As to B6, the Kd with hnRNP A2/B1 RRM1-RRM2 was 107 ± 16.2 nM.

B7: G8C (ssRNA)
RNA: AAGGACUACC
On to B7, for which the dissociation constant Kd in the series with hnRNP A2/B1 RRM1-RRM2 turned out to be 292 ± 44.2 nM.

B8: A1U (ssRNA)
RNA: AUGGACUAGC
Turning to B8, in the series with hnRNP A2/B1 RRM1-RRM2, the equilibrium dissociation constant (Kd) was 532 ± 66.7 nM.

B9: 10mer (ssRNA)
RNA: AAGGACUAGC
Take B9: the Kd in series [2] came out at 290 ± 47.8 nM; in the series with hnRNP A2/B1 RRM1-RRM2, 115 ± 11.5 nM; in [3], 562 ± 69.4 nM; in series [1], 26.5 ± 1.8 nM; in [4] it was 813 ± 1.17 nM; in [5], 763 ± 10.2 nM. Also, the Kd in series [6] was 535 ± 97.1 nM; in [7], 752 ± 85.5 nM; in series [8], 413 ± 50.5 nM; with hnRNP A2/B1 full-length, 103 ± 8.93 nM; in series [9], 440 ± 42 nM; in series [10] it was 457 ± 35.5 nM. The figures for the Kd in series [11] and in series [12] were 167 ± 19.2 nM and 781 ± 87.7 nM, respectively.

B10: U6C (ssRNA)
RNA: AAGGACCAGC
As to B10, the Kd with hnRNP A2/B1 RRM1-RRM2 amounted to 184 ± 16.3 nM.

B11: G3A (ssRNA)
RNA: AAGAACUAGC
B11: the dissociation constant Kd with hnRNP A2/B1 RRM1-RRM2 amounted to 244 ± 25.3 nM.

B12: 8mer (ssRNA)
RNA: AGGACUGC
Regarding B12, the equilibrium dissociation constant (Kd) in the series with hnRNP A2/B1 RRM1-RRM2 was found to be 276 ± 27.5 nM; in [1] it was 465 ± 53.2 nM.

B13: A1C (ssRNA)
RNA: ACGGACUAGC
In the case of B13, the Kd with hnRNP A2/B1 RRM1-RRM2 amounted to 662 ± 54.3 nM.

B14: G2U (ssRNA)
RNA: AAUGACUAGC
On to B14, for which the dissociation constant (Kd) with hnRNP A2/B1 RRM1-RRM2 stood at 581 ± 58.1 nM.

B15: 10mer-m6A (ssRNA)
RNA: AAGGACUAGC
modifications: m6A at position 5
In the case of B15, the dissociation constant (Kd) with hnRNP A2/B1 RRM1-RRM2 stood at 1320 ± 143 nM; in series [1] it was 176 ± 25.3 nM; in the series with hnRNP A2/B1 full-length, 172 ± 25.6 nM.

B16: G2A (ssRNA)
RNA: AAAGACUAGC
For the molecule B16, the equilibrium dissociation constant (Kd) with hnRNP A2/B1 RRM1-RRM2 stood at 316 ± 37 nM.

B17: U6A (ssRNA)
RNA: AAGGACAAGC
With B17, the Kd in the series with hnRNP A2/B1 RRM1-RRM2 was 204 ± 19.9 nM.

Broadly, the Kd is the constant that tells how readily two partners part at equilibrium.

These data come from PMC5789076, “Molecular basis for the specific and multivariant recognitions of RNA substrates by human hnRNP A2/B1”.
